The subject of data set [1] is N[C@@H](CCC(=O)NP(=O)(O)O)C(=O)O. Briefly: purified protein. To be noted: fixed 5.0 mM MgCTP, pH 8.0, 25 °C.
The test system of data set [2] is Nc1ccn([C@@H]2O[C@H](COP(=O)(O)OP(=O)(O)NC(=O)CC[C@H](N)C(=O)O)[C@@H](O)[C@H]2O)c(=O)n1. The experiment in a line: purified protein. Conditions: pH 8.0, 25 °C.

By Km is commonly meant the concentration of substrate that gives half-maximal velocity. For orientation: kcat means the maximal rate divided by the concentration of active sites. Take “Cj1416 (Campylobacter jejuni subsp. jejuni NCTC 11168 = ATCC 700819)”: in data set [1], the Km worked out at 120 ± 30 µM and the kcat was 0.95 ± 0.1 s⁻¹.

In the case of “Cj1417 (Campylobacter jejuni subsp. jejuni NCTC 11168 = ATCC 700819)”, in data set [2], the Km was found to be 28 ± 3 µM and the kcat is 0.567 ± 0.02 s⁻¹.

The record behind these values is article PMC5938751.
